In article doi:10.1101/2025.11.22.689938 (bioRxiv, 2025):

Target: HA-JMJD5 (wildtype, pEF6) (human, UniProt Q8N371 1-416)
Experiment: co-IP

Chain of HA-JMJD5 (wildtype, pEF6) (Q8N371 whole entry): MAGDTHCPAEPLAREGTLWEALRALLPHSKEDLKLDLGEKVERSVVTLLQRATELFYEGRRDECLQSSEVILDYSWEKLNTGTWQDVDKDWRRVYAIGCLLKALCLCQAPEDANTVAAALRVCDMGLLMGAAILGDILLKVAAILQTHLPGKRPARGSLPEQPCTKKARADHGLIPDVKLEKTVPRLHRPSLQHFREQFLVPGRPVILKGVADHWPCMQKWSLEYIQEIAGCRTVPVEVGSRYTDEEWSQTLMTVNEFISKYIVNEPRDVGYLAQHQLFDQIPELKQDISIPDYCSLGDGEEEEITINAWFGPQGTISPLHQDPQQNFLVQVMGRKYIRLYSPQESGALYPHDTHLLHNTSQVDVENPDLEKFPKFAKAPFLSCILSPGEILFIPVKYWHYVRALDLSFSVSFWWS

binding result: binds
B1: RCCD1-FLAG (wildtype, pIHZ) (natural protein)
chain: MAEERPGAWFGFGFCGFGQELGSGRGRQVHSPSPLRAGVDICRVSASWSYTAFVTRGGRLELSGSASGAAGRCKDAWASEGLLAVLRAGPGPEALLQVWAAESALRGEPLWAQNVVPEAEGEDDPAGEAQAGRLPLLPCARAYVSPRAPFYRPLAPELRARQLELGAEHALLLDAAGQVFSWGGGRHGQLGHGTLEAELEPRLLEALQGLVMAEVAAGGWHSVCVSETGDIYIWGWNESGQLALPTRNLAEDGETVAREATELNEDGSQVKRTGGAEDGAPAPFIAVQPFPALLDLPMGSDAVKASCGSRHTAVVTRTGELYTWGWGKYGQLGHEDTTSLDRPRRVEYFVDKQLQVKAVTCGPWNTYVYAVEKGKS
